Measurements published in patent US20150203577A1 (Chugai, published 2015).

Legend:
mouse FcγRIII [1] = biological target: T1, mouse FcγRIII (mouse, UniProt P08508 31-215); assay: SPR (Biacore), KD of H237-mIgG1/MRAL-k0 (same run) / KD of variant
T1 construct: Extracellular domain with C-terminal His tag, made in FreeStyle 293 cells; also called mFcγRIII; mFcgRIII
T1 chain: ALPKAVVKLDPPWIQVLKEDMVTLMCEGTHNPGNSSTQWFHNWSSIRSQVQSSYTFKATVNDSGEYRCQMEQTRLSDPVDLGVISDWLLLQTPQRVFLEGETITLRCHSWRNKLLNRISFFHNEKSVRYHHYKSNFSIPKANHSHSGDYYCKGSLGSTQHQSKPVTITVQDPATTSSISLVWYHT
Method: (§1) Each altered antibody was analyzed for its interaction with each Fcγ receptor prepared above using Biacore T100 (GE Healthcare Japan Corp.), Biacore T200 (GE Healthcare Japan Corp.), Biacore A100, or Biacore 4000. The running buffer used was HBS-EP+ (GE Healthcare Japan Corp.). The assay temperature was set to 25° C. The sensor chips used were chips prepared by immobilizing Protein L (ACTIGEN or BioVision) onto Series S Sensor Chip CM5 (GE Healthcare Japan Corp.) or Series S Sensor Chip CM4 (GE Healthcare Japan Corp.) by the amine coupling method.
(§2) In order to calculate the KD value of each altered antibody for FcγR, kinetic analysis was conducted according to the following method: first, the antibody of interest was captured onto any of these chips and allowed to interact with mFcγR diluted with a running buffer. For the obtained sensorgram, the assay results were globally fit into the 1:1 Langmuir binding model using Biacore Evaluation Software to calculate an association rate constant ka (L/mol/s) and a dissociation rate constant kd (1/s). From these values, the dissociation constant KD (mol/L) was calculated.

mouse FcγRII [2] = biological target: T2, mouse FcγRII (mouse, UniProt P08101 30-210); assay: as above
T2 construct: Extracellular domain with C-terminal His tag, made in FreeStyle 293 cells; also called mFcγRII; mFcgRII
T2 sequence: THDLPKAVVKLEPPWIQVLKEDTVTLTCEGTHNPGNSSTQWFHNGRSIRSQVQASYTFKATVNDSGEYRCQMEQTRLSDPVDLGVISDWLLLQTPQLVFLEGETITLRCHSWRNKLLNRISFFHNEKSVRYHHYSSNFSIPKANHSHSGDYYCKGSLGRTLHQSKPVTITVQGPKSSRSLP
Method: as §1, §2

mouse FcγRIII [3] = biological target: T1, mouse FcγRIII; assay: SPR (Biacore), antibody captured on Protein L
mouse FcγRII [4] = biological target: T2, mouse FcγRII; assay: SPR (Biacore), antibody captured on Protein L

| Binder | relative mFcγRIII-binding activity (mIgG1 = 1) (mouse FcγRIII [1]) | relative mFcγRII-binding activity (mIgG1 = 1) (mouse FcγRII [2]) | Kd (mouse FcγRIII [3]) | Kd (mouse FcγRII [4]) |
| --- | --- | --- | --- | --- |
| H237-MB640/MRAL-k0 (antibody, mouse IgG1, kappa, copies: 2 + 2) heavy: QVQLQESGPGLVKPSETLSLTCAVSGHSISHDHAWSWVRQPPGEGLEWIGFISYSGITNYNPSLQGRVTISRDNSKNTLYLQMNSLRAEDTAVYYCARSLARTTAMDYWGEGTLVTVSSAKTTPPSVYPLAPGSAAQTNSMVTLGCLVKGYFPEPVTVTWNSGSLSSGVHTFPAVLQSDLYTLSSSVTVPSSTWPSETVTCNVAHPASSTKVDKKIVPRDCGCKPCICQPNEVENVFIFPPKPKDVLTITLTPKVTCVVVDISKDDPEVQFSWFVDDVEVHTAQTQPREEQFNSTFRSVSELPIMHQDWLNGKEFKCRVNSAAFPAPIEKTISKTKGRPKAPQVYTIPPPKEQMAKDKVSLTCMITDFFPEDITVEWQWNGQPAENYKNTQPIMDTDGSYFVYSKLNVQKSNWEAGNTFTCSVLHEGLHNHHTEKSLSHSPGK light: not shown | 0.21 fold | 1.17 fold | 1550 nM | 197 nM |
| H237-MB642/MRAL-k0 (antibody, mouse IgG1, kappa, copies: 2 + 2) heavy: QVQLQESGPGLVKPSETLSLTCAVSGHSISHDHAWSWVRQPPGEGLEWIGFISYSGITNYNPSLQGRVTISRDNSKNTLYLQMNSLRAEDTAVYYCARSLARTTAMDYWGEGTLVTVSSAKTTPPSVYPLAPGSAAQTNSMVTLGCLVKGYFPEPVTVTWNSGSLSSGVHTFPAVLQSDLYTLSSSVTVPSSTWPSETVTCNVAHPASSTKVDKKIVPRDCGCKPCICEDYEVEYVFIFPPKPKDVLTITLTPKVTCVVVDISKDDPEVQFSWFVDDVEVHTAQTQPREEQFNSTFRSVSELPIMHQDWLNGKEFKCRVNSAAFPAPIEKTISKTKGRPKAPQVYTIPPPKEQMAKDKVSLTCMITDFFPEDITVEWQWNGQPAENYKNTQPIMDTDGSYFVYSKLNVQKSNWEAGNTFTCSVLHEGLHNHHTEKSLSHSPGK light: not shown | 0.1 fold | 1.65 fold | 5110 nM | 197 nM |
| H237-MB643/MRAL-k0 (antibody, mouse IgG1, kappa, copies: 2 + 2) heavy: QVQLQESGPGLVKPSETLSLTCAVSGHSISHDHAWSWVRQPPGEGLEWIGFISYSGITNYNPSLQGRVTISRDNSKNTLYLQMNSLRAEDTAVYYCARSLARTTAMDYWGEGTLVTVSSAKTTPPSVYPLAPGSAAQTNSMVTLGCLVKGYFPEPVTVTWNSGSLSSGVHTFPAVLQSDLYTLSSSVTVPSSTWPSETVTCNVAHPASSTKVDKKIVPRDCGCKPCICENYEVEYVFIFPPKPKDVLTITLTPKVTCVVVDISKDDPEVQFSWFVDDVEVHTAQTQPREEQFNSTFRSVSELPIMHQDWLNGKEFKCRVNSAAFPAPIEKTISKTKGRPKAPQVYTIPPPKEQMAKDKVSLTCMITDFFPEDITVEWQWNGQPAENYKNTQPIMDTDGSYFVYSKLNVQKSNWEAGNTFTCSVLHEGLHNHHTEKSLSHSPGK light: not shown | 0.16 fold | 1.83 fold | 2000 nM | 126 nM |
| H237-MB641/MRAL-k0 (antibody, mouse IgG1, kappa, copies: 2 + 2) heavy: QVQLQESGPGLVKPSETLSLTCAVSGHSISHDHAWSWVRQPPGEGLEWIGFISYSGITNYNPSLQGRVTISRDNSKNTLYLQMNSLRAEDTAVYYCARSLARTTAMDYWGEGTLVTVSSAKTTPPSVYPLAPGSAAQTNSMVTLGCLVKGYFPEPVTVTWNSGSLSSGVHTFPAVLQSDLYTLSSSVTVPSSTWPSETVTCNVAHPASSTKVDKKIVPRDCGCKPCICEAYEVEYVFIFPPKPKDVLTITLTPKVTCVVVDISKDDPEVQFSWFVDDVEVHTAQTQPREEQFNSTFRSVSELPIMHQDWLNGKEFKCRVNSAAFPAPIEKTISKTKGRPKAPQVYTIPPPKEQMAKDKVSLTCMITDFFPEDITVEWQWNGQPAENYKNTQPIMDTDGSYFVYSKLNVQKSNWEAGNTFTCSVLHEGLHNHHTEKSLSHSPGK light: not shown | 0.15 fold | 1.62 fold | 2100 nM | 143 nM |
